Source: patent US20050069542A1 (Human Genome Sciences, published 2005)

T1: flag-tagged soluble TL3 (amino acids 105-251 of SEQ ID NO:234) (Homo sapiens (Human), UniProt O75888 105-250)
T1 construct: Heterologous flag-tagged control protein, immobilized in the ELISA; also called flagged tagged TL-3; not shown: Flag tag
T1 sequence: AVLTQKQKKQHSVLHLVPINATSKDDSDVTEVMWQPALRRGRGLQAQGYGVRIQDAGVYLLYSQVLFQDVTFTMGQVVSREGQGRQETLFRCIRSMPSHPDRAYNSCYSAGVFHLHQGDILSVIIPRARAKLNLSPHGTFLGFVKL


Biological target: T1, flag-tagged soluble TL3 (amino acids …)
Test: phage ELISA on immobilized flag-tagged soluble TL3
Method: The individual phage isolates in the panel of phage, each phage expressing a unique scFv that bound to flag-tagged GMAD, were tested to ensure specificity for GMAD using an ELISA assay. The scFvs were tested in an ELISA for their ability to bind a heterologous flag-tagged protein, in this case—immobilized soluble TL3 (amino acids 105-251 of SEQ ID NO:234, GenBank Accesion Number NP_{—}003799, also described in International Patent Application Publication Number WO97/33902 and WO2001/96528 which are herein incorporated by reference in their entireties).

Binder | binding result
GMBC642 (scFv) scFv: QVQLQQSGAEVKKPGASVKVSCKASGYTFTIHYMHWVRQAPGQGLEWMGIINPGDGSTSYAQNFQGRVTMTRDTSTSTVYMELSSLRSEDTAVYYCARAGRTVTSHFDYWGRGTLATVSSGGGGSGGGGSGGGGSSELTQDPAVSVALGQTVRITCQGDSLRSYYASWYQQKPGQAPVLVIYGKNNRPSGIPDRFSGSSSGNTASLTITGAQAEDEADYYCNSRDSSGNHVVFGGGTKLTVLG | no binding
GMBC606 (scFv) scFv: EVQLVQSGGGVVQPGGSLRLSCAASGFTFSSYGMHWVRQAPGKGLEWVAFIRYDGSNKYYADSVKGRFTISRDNSKNTLYLQMNSLRAEDTAVYYCAKSSSFANAFDIWGQGTTVTVSSGGGGSGGGGSGGGGSSELTQDPAVSVALGQTVRITCQGDSLRSYYASWYQQKPGQAPVLVIYGKNNRPSGIPDRFSGSSSGNTASLTITGAQAEDEADYYCNSRDSSGNHVVFGGGTKLTVLG | no binding
GMBC662 (scFv) scFv: GVQLVQSGAEVKKPGSSVKVSCKASGGTFSSYTISWVRQAPGQGLEWMGRIIPILGIANYAQKFQGRVTITADKSTSTAYMELSSLRSEDTAVYYCAREKLRDFQHWGQGTLVTVSSGGGGSGGGGSGGGGSQSVLTQPASVSGSPGQSITISCTGTSSDVGGYNYVSWYQQHPGKAPKLMIYEGSKRPSGISNRFSGSKSGNTASLTISRLQAEDEADYYCSSYTTRSTRVFGGGTKLTVLG | no binding
GMBC681 (scFv) scFv: QVQLVQSGGGVVQPGGSLRLSCAASGFTFSSYGMHWVRQAPGKGLEWVAFIRYDGSNKYYADSVKGRFTISRDNSKNTLYLQMNSLRAEDTAVYYCAKGGTGYFDLWGRGTLVTVSSGGGGSGGGGSGGGGSDIQMTQSPSTLSASIGDRVTITCRASEGIYHWLAWYQQKPGKAPKLLIYKASSLASGAPSRFSGSGSGTDFTLTISSLQPDDFATYYCQQYSNYPLTFGGGTKLEIKR | no binding
GMBC682 (scFv) scFv: QVQLVESGGGVVKPGGSLRLSCAASGFKFSDAWMNWVRQAPGKGLEWVGRIKSKGSGGTIDYAAPVKDRFTISRDDSKNTLYLQMNSLKTEDTALYYCTWDWDFYYGMNVWGRGTLVTVSSGGGGSGGGGSGGGGSSELTQDPAVSVALGQTVRITCQGDSLRSYYASWYQQKPGQAPVLVIYGKNNRPSGIPDRFSGSSSGNTASLTITGAQAEDEADYYCNSRDSSGNHVVFGGGTKLTVLG | no binding
GMBC657 (scFv) scFv: QMQLMQSGGGLVKPGGSLRLSCAGSGFKFSDAWMNWVRQAPGKGLEWVGRIKSKGSGGTIEYAAPVKDRFIISRDDSKDTLYLQMNSLKTEDTALYYCTWDWDFYYGMNVWGQGTLVTVSSGGGGSGGGGSGGGGSSELTQDPAVSVALGQTVRITCQGDSLRSYYASWYQQKPGQAPVLVIYGKNNRPSGIPDRFSGSSSGNTASLTITGAQAEDEADYYCNSRDSSGNHVVFGGGTKLTVLG | no binding
GMBC639 (scFv) scFv: GVQLVQSGAEVKTPGASVKVSCKASGYTFTNHYMHWVRQAPGQGIEWVGVINPSGDGSSYAQTFQGRVTMTRDTSTSTVYMELRSLRSDDTAVYYCARDLFYDFWSDYYRNDQYYYMDVWGKGTLVTVSSGGGGSGGGGSGGGGSSELTQDPAVSVALGQAVRITCQGDSLRSYYASWYQQKPGQAPVLVIYGKNNRPSGIPDRFSGSSSGNTASLTITGAQAEDEADYYCNSRDSSGNHVVFGGGTKLTVLG | no binding
GMBC646 (scFv) scFv: GVQLVQSGAEVKKPGASVKVSCKASGYTFTSYYIHWVRQAPGQGLEWMGIINPSGGTTSYAQKFQGRVTMTRDTSTSTVYMELSSLRSEDTAMYYCARERFLRGMDVWGRGTMVTVSSGGGGSGGGGSGGGGSDIVMTQSPSTLSASVGDRVTITCRASQGISSWLAWYQQKPGRAPKVLIYKASTLESGVPSRFSGSGSGTDFTLTISSLQPEDFATYYCQQSYSTPWTFGQGTKLEIKR | no binding
GMBC673 (scFv) scFv: EVQLVESGGGLVQTGGSLRLSCAASGFPIGSHWMSWVRQSPGKGLEWVASIKQDGREKHFVDSVKGRFGISRDNAKDSLYLQMNSLRIEDTAVYYCARETYGGYYYYFMDVWGRGTLVTVSSGGGGSGGGGSGGGGSSELTQDPAVSVALGQTVRITCQGDSLRSYYASWYQQKPGQAPVLVIYGKNNRPSGIPDRFSGSSSGNTASLTITGAQAEDEADYYCQTWGPGIRVFGGGTKLTVLG | no binding
GMBC669 (scFv) scFv: QVQLVESGGALVKPGGSLRLSCAASGFTFSDAWMNWVRQAPGKGLEWVGRIKSKGSGGTIDYAAPVKDRFTISRDDSKNTLYLQMNSLKTEDTALYYCTWDWDFYYGMNVWGQGTLVTVSSGGGGSGGGGSGGGGSQSVLTQPPSASGSPGQSVTISCTGTSSDVGGYNYVSWYQQHPGKAPKFMIYDVSKRPSGVSNRFSGSKSGNTASLTISGVQAEDEADYYCSSYTSASTVIFGGGTKLTVLG | no binding
GMBC609 (scFv) scFv: QVQLVESGGGLVKPGESLRLSCEASGFEFNYAWMSWVRQAPGKGLEWVGRSRSEASGGTTDYAAPLQDRFTISRDDSKNTLYLQVNSLKIEDTGVYFCKWEKSEYYGMDVWGRGTPVTVSSGGGGSGGGGSGGGGSQSVLTQPPSVSAAPGQKVTISCSGSTSNIGNNYVSWYQQHPGKAPKLMIYDVSKRPSGVPDRFSGSKSGNSASLDISGLQSEDEADYYCAAWDDSLSEFLFGTGTKLTVLG | no binding
GMBC655 (scFv) scFv: EVQLVESGGGLVKPGGSLRLSCAASGFTFSSYGMSWIRQAPGKGQEWVSAISGSGGSAYYADSVKGRFTISRDNSKNTLYLQMNSLRAEDTAVYYCAKAYSSEDYWGRGTMVTVSSGGGGSGGGGSGGGGSNIQMTQSPSFLSASVGDRVTITCRASQGINNYLAWYQQKPGRAPKLLIYAASSLQSGVPSRFSGSGSGTDFTLTISSLQPDDFATYYCQQYSNYPLTFGGGTKLEIKR | no binding

Continued, values first:

binding result | Binder
no binding | GMBC725 (scFv) scFv: EVQLVQTGGGVVQPGGSLRLSCAASGFTFSSYGMHWVRQAPGKGLEWVAFILYDGSNKYYADSVKGRFTISRDNSKNTLYLQMNSLRAEDTAVYYCAKSSSSASAFDIWRQRTTVTVSSGGGGSGGGGSGGGGSSELTQDPAVSVALGQTVRITCQGDSLRSYYASWYQQKPGQAPVLVIYGKNNRPSGIPDRFSGSSSGNTASLTITGAQAEDEADYYCNSRDSSGNHVVFGGGTKLTVLG
no binding | GMBC652 (scFv) scFv: GVQLVQSGGVVVKPGGSLRLSCAASGFTFSDAWMNWVRQAPGKGLEWVGRIKSKGSGGTTDYAAPVKGRFTISRDDSENTLYLQMNSLKTEDTAVYYCTWDHSYYYDMAVWGRGTMVTASSGGGGSGGGGSGGGGSQSVLTQPASVSGSPGQSITISCTGTSSDVGGYNYVSWYQQHPGKAPKFMIYDVSKRPSGVSNRFSGSKSGNTASLTISGVQAEDEADYYCSSYTSASTVIFGGGTKLTVLG
no binding | GMBC641 (scFv) scFv: EVQLVESGGGVVRPGRSLRLSCAASGFSFSSYGMHWVRQAPGKGLEWVSAISGSGGSTYYADSVKGRFTISRDNSKNTLYLQMNSLRAEDTAVYFCAKGGDRSFRAFDFWGQGTMVTVSSGGGGSGGGGSGGGGSSELTQDPAVSVALGQTVRITCQGDSLRSYYASWYQQKPGQAPVLVIYGKNNRPSGIPDRFSGSSSGNTASLTITGAQAEDEADYYCNSRDSSGNHVVFGGGTKLTVLG
no binding | GMBC648 (scFv) scFv: QVQLVESGGGLVKPGGSLRLSCAASGFTFSDAWMNWVRQAPGKGLEWVGRIKSKRSGGTIDYAAPVKDRFTISRDDSKNTLYLQMNSLKTEDTALYYCTWDWDFYYGMNVWGQGTMVTVSSGGGGSGGGGSGGGGSSELTQDPTVSVALGQTVRITCQGDSLRSYYASWYQQKPGQAPVLVIYGKNNRPSGIPDRFSGSSSGNTASLTITGAQAEDEADYYCNSRDSSGNHVVFGGGTKLTVLG
no binding | GMBC668 (scFv) scFv: EVQLVESGGGLVKPGGSLRLSCAASGFTFSDAWMNWVRQAPGKGLEWVGRIKSKGSGGTTDYAAPVKGRFTISRDDSENTLYLQMNSLKTEDTAVYYCTWDHSYYYDMAVWGRGTLVTVSSGGGGSGGGGSGGGGSSELTQDPAVSVALGQTVRITCQGDSLRSYYASWYQQKPGQAPVLVIYGKNNRPSGIPDRFSGSSSGNTASLTITGAQAEDEADYYCNSRDSSGNHVVFGGGTKLTVLG
no binding | GMBC678 (scFv) scFv: EVQLVESGGGLVKPGGSLRLSCAASGFTFSDAWMNWVRQAPGKGLEWVGRIKSKGSGGTIDYAAPVKDRFTISRDDSKNTLYLQMNSLKTEDTALYYCTWDWDFYYGMNVWGQGTLVTVSSGGGGSGGGGSGGGGSQSVLTQPPSASGSPGQSVTISCTGTSSDVGGYNYVSWYQQHPGKAPKFMIYDVSKRPSGVSNRFSGSKSGNTASLTISGVQAEDEADYYCSSYTSASTVIFGGGTKLTVLG
no binding | GMBC666 (scFv) scFv: EVQLVESGGGLAKPGESLRLSCEASGFEFNYAWMSWVRQAPGKGLEWVGRSRSEASGGTTDYAAPLQDRFTISRDDSKNTLYLQVNSLKIEDTGVYFCKWEKSEYYGMDVWGKGTMVTVSSGGGGSGGGGSGGGGSQSVLTQPPSVSAAPGQKVTISCSGSTSNIGNNYVSWYQQHPGKAPKLMIYDVSKRPSGVPDRFSGSKSGNSASLDISGLQSEDEADYYCAAWDDSLSEFLFGTGTKLTVLG
